In patent US10738090B2, “Engineered microcompartment protein and related methods and systems of engineering bacterial systems for non-native protein expression and purification” (priority 2017, dated 2020):
No end group written: not given here.

Legend:
pathogens = conditions: cited from earlier work
E. coli BL21(DE3) cells = type: cell-based; conditions: for concentration showing significant anti-bacterial activity: BL21(DE3) E. coli
Protocol: Growth inhibition activity can be tested against E. coli BL21(DE3) cells. Overnight cultures of cells were diluted to 200 μL of an initial OD600 of 0.05-0.1 in LB medium. Diluted cultures were grown at 37° C., 1000 rpm in a PHMP-4 Microplate Shaker (Grant Instruments, Cambridge, England). Protein was added to the culture at an OD600 of 0.1-0.2. Growth measured by OD600 was monitored over time and were conducted in triplicate. TEV-digested material contained HB-Enc fusion protein (0.5 mg/mL) that was incubated with TEV protease (0.5 U/mL) overnight for 17 h at 4° C.

[1] = Proteolysis of HB fusion constructs in C43(DE3) cell lysate (SDS-PAGE, anti-His Western blot); design: species or system E. coli
Protocol: In particular, in order to perform the testing, all DNA plasmids were transformed and expressed in C43(DE3) cells as described in Example 12, except that cells were grown in 25 mL of LB medium in 150-mL flasks. IPTG induction was conducted overnight for 17 h at 18° C. to enhance soluble protein expression. Cells were harvested and lysed also as described in Example 12.
To test for proteolysis in cell lysate, cells expressing the HB-Enc constructs from 25 mL of culture were harvested and resuspended in phosphate buffer (50 mM sodium phosphate pH 8.0, 500 mM NaCl) and 10 U/mL of DNaseI. Cells were lysed via a French Pressure cell at 14,000 psi and then centrifuged at 12,000 g, 4° C. for 25 min. The supernatant (soluble) fraction was collected and incubated at 4° C. overnight. Samples for SDS-PAGE analysis were collected immediately after lysis and after overnight incubation.
As controls, samples after BPER-II lysis were also prepared. Samples were resolved on an any-kDa SDS-PAGE gel (Bio-Rad) and stained with Coomassie blue. For Western blot analysis, samples were resolved on an any-kDa and blotted to a PVDF membrane using a Transblot Turbo System (Bio-Rad) at 2.5 A for 7 min. Samples were probed using a mouse anti-His-tag primary antibody and a rabbit anti-Mouse-HRP conjugated secondary antibody (both from Bio-Rad). HRP was detected on the membrane using chemiluminescence.

TEV protease = biological target: T1, TEV protease (Tobacco etch virus, UniProt P04517); type: biochemical; conditions: for extent of TEV protease digestion / release of HBCM2 peptide: exogenous TEV protease, overnight at 4° C., G4T linker; for release of HB peptide by TEV protease: GT linker instead of G4T linker between TEV site and N-terminus of Enc, SDS-PAGE
T1 construct: Tobacco etch virus protease (TEV protease)
Protocol: All purified constructs were digested by addition of exogenous TEV protease, followed by overnight incubation at 4° C. Products were resolved on a 16.5% Tris-Tricine gel (Bio-Rad).

[2] = French press lysis without BPER-II, then overnight incubation at 4° C.
[3] = immediately after French press lysis

Cecropin PR-39
bactericidal activity (pathogens): high bactericidal activity

GNNRPVYIPQPRPPHPRI [native Ap peptide, Apidaecin Ia, reference compound]
concentration showing significant anti-bacterial activity (E. coli BL21(DE3) cells; chemically synthesized peptide): ≥ 100 µg/mL | bactericidal activity (pathogens): high bactericidal activity

MKWKSFIKKLTKAAKKVVTTAKKPLIVENLYFQ [M-HBCM2-TEV]
concentration showing significant anti-bacterial activity (E. coli BL21(DE3) cells; chemically synthesized peptide): 2 µg/mL | MIC (E. coli BL21(DE3) cells; chemically synthesized peptide, E. coli BL21(DE3), FIG. 31 Panel B): < 5 µg/mL

B1: TEV protease: Tobacco etch virus protease, recognition sequence ENLYFQ/G; negative control alone (protein)
chain: GESLFKGPRDYNPISSTICHLTNESDGHTTSLYGIGFGPFIITNKHLFRRNNGTLLVQSLHGVFKVKNTTTLQQHLIDGRDMIIIRMPKDFPPFPQKLKFREPQREERICLVTTNFQTKSMSSMVSDTSCTFPSSDGIFWKHWIQTKDGQCGSPLVSTRDGFIVGIHSASNFTNTNNYFTSVPKNFMELLTNQEAQQWVSGWRLNADSVLWGGHKVFMSKPEEPFQPVKEATQLMNELVYSQ
anti-bacterial / growth inhibition activity (E. coli BL21(DE3) cells; E. coli BL21(DE3), concentration not given): no growth inhibition

B2: HB-EncK71^TEVK138^TEV-His: HBCM2 fused to N-terminus of T. maritima encapsulin; TEV sites after K71 and K138, His-tag; non-cage forming (protein)
chain: MKWKSFIKKLTKAAKKVVTTAKKPLIVENLYFQGGGGGTEFLKRSFAPLTEKQWQEIDNRAREIFKTQLYGRKFVDVEGPYGWEYAAHPLGEVEVLSDENEVVKWGLRKGGENLYFQGGGSLPLIELRATFTLDLWELDNLERGKPNVDLSSLEETVRKVAEFEDEVIFRGCEKSGVKGLLSFEERKGGGGGENLYFQGHHHHHHGGGGGIECGSTPKDLLEAIVRALSIFSKDGIEGPYTLVINTDRWINFLKEEAGHYPLEKRVEECLRGGKIITTPRIEDALVVSERGGDFKLILGQDLSIGYEDREKDAVRLFITETFTFQVVNPEALILLK
growth inhibition of E. coli (E. coli BL21(DE3) cells; undigested fusion protein at 40 μg/mL): did not inhibit the growth | truncated products on expression (proteolysis) ([1]; C43(DE3) cells, anti-His-tag Western blot): some truncated products | proteolysis in cell lysate [1, 2]: completely proteolyzed | proteolysis in cell lysate [1, 3]: significantly degraded | extent of TEV protease digestion / release of HBCM2 peptide (TEV protease): apparent complete digestion

B3: HB-EncK138^TEV-His: HBCM2, TEV site, G4T-linker fused to N-terminus of Enc; TEV site and His6-tag after K138; cage forming (protein)
chain: MKWKSFIKKLTKAAKKVVTTAKKPLIVENLYFQGGGGGTEFLKRSFAPLTEKQWQEIDNRAREIFKTQLYGRKFVDVEGPYGWEYAAHPLGEVEVLSDENEVVKWGLRKSLPLIELRATFTLDLWELDNLERGKPNVDLSSLEETVRKVAEFEDEVIFRGCEKSGVKGLLSFEERKGGGGGENLYFQGHHHHHHGGGGGIECGSTPKDLLEAIVRALSIFSKDGIEGPYTLVINTDRWINFLKEEAGHYPLEKRVEECLRGGKIITTPRIEDALVVSERGGDFKLILGQDLSIGYEDREKDAVRLFITETFTFQVVNPEALILLK
proteolysis in cell lysate [1, 2]: resistant to proteolysis

B4: HB-EncV57^TEVK138^TEV-His: HB-Enc fusion with TEV site after V57 plus TEV-His insertion after K138; cage forming (protein)
chain: MKWKSFIKKLTKAAKKVVTTAKKPLIVENLYFQGGGGGTEFLKRSFAPLTEKQWQEIDNRAREIFKTQLYGRKFVDVEGPYGWEYAAHPLGEVEVGGENLYFQGGGLSDENEVVKWGLRKSLPLIELRATFTLDLWELDNLERGKPNVDLSSLEETVRKVAEFEDEVIFRGCEKSGVKGLLSFEERKGGGGGENLYFQGHHHHHHGGGGGIECGSTPKDLLEAIVRALSIFSKDGIEGPYTLVINTDRWINFLKEEAGHYPLEKRVEECLRGGKIITTPRIEDALVVSERGGDFKLILGQDLSIGYEDREKDAVRLFITETFTFQVVNPEALILLK
proteolysis in cell lysate [1, 2]: resistant to proteolysis

B5: HB-EncV57^TEVK138^TEV-His with the shorter GT linker: HB-EncV57^TEVK138^TEV-His with a GT linker instead of the G4T linker (protein)
chain: MKWKSFIKKLTKAAKKVVTTAKKPLIVENLYFQGGTEFLKRSFAPLTEKQWQEIDNRAREIFKTQLYGRKFVDVEGPYGWEYAAHPLGEVEVGGENLYFQGGGLSDENEVVKWGLRKSLPLIELRATFTLDLWELDNLERGKPNVDLSSLEETVRKVAEFEDEVIFRGCEKSGVKGLLSFEERKGGGGGENLYFQGHHHHHHGGGGGIECGSTPKDLLEAIVRALSIFSKDGIEGPYTLVINTDRWINFLKEEAGHYPLEKRVEECLRGGKIITTPRIEDALVVSERGGDFKLILGQDLSIGYEDREKDAVRLFITETFTFQVVNPEALILLK
release of HB peptide by TEV protease (TEV protease): did not result in detectable release of HB peptide

B6: HB-EncK138^TEV-His with the shorter GT linker: HB-EncK138^TEV-His with a GT linker between TEV site and N-terminus of Enc instead of G4T (protein)
chain: MKWKSFIKKLTKAAKKVVTTAKKPLIVENLYFQGGTEFLKRSFAPLTEKQWQEIDNRAREIFKTQLYGRKFVDVEGPYGWEYAAHPLGEVEVLSDENEVVKWGLRKSLPLIELRATFTLDLWELDNLERGKPNVDLSSLEETVRKVAEFEDEVIFRGCEKSGVKGLLSFEERKGGGGGENLYFQGHHHHHHGGGGGIECGSTPKDLLEAIVRALSIFSKDGIEGPYTLVINTDRWINFLKEEAGHYPLEKRVEECLRGGKIITTPRIEDALVVSERGGDFKLILGQDLSIGYEDREKDAVRLFITETFTFQVVNPEALILLK
release of HB peptide by TEV protease (TEV protease): did not result in detectable release of HB peptide

B7: HB-EncD60^TEVK138^TEV-His: HB-Enc fusion with TEV site after D60 plus TEV-His insertion after K138; cage forming (protein)
chain: MKWKSFIKKLTKAAKKVVTTAKKPLIVENLYFQGGGGGTEFLKRSFAPLTEKQWQEIDNRAREIFKTQLYGRKFVDVEGPYGWEYAAHPLGEVEVLSDGGENLYFQGGGENEVVKWGLRKSLPLIELRATFTLDLWELDNLERGKPNVDLSSLEETVRKVAEFEDEVIFRGCEKSGVKGLLSFEERKGGGGGENLYFQGHHHHHHGGGGGIECGSTPKDLLEAIVRALSIFSKDGIEGPYTLVINTDRWINFLKEEAGHYPLEKRVEECLRGGKIITTPRIEDALVVSERGGDFKLILGQDLSIGYEDREKDAVRLFITETFTFQVVNPEALILLK
proteolysis in cell lysate [1, 2]: resistant to proteolysis

B8: HB-EncK71^TEV (protein)
chain: MKWKSFIKKLTKAAKKVVTTAKKPLIVENLYFQGGGGGTEFLKRSFAPLTEKQWQEIDNRAREIFKTQLYGRKFVDVEGPYGWEYAAHPLGEVEVLSDENEVVKWGLRKGGENLYFQGGGSLPLIELRATFTLDLWELDNLERGKPNVDLSSLEETVRKVAEFEDEVIFRGCEKSGVKGLLSFEERKIECGSTPKDLLEAIVRALSIFSKDGIEGPYTLVINTDRWINFLKEEAGHYPLEKRVEECLRGGKIITTPRIEDALVVSERGGDFKLILGQDLSIGYEDREKDAVRLFITETFTFQVVNPEALILLK
proteolysis in cell lysate [1, 2]: completely proteolyzed | proteolysis in cell lysate [1, 3]: significantly degraded | extent of TEV protease digestion / release of HBCM2 peptide (TEV protease): apparent complete digestion

B9: HB-EncD60^TEVK138^TEV-His with the shorter GT linker: HB-EncD60^TEVK138^TEV-His with a GT linker instead of the G4T linker (protein)
chain: MKWKSFIKKLTKAAKKVVTTAKKPLIVENLYFQGGTEFLKRSFAPLTEKQWQEIDNRAREIFKTQLYGRKFVDVEGPYGWEYAAHPLGEVEVLSDGGENLYFQGGGENEVVKWGLRKSLPLIELRATFTLDLWELDNLERGKPNVDLSSLEETVRKVAEFEDEVIFRGCEKSGVKGLLSFEERKGGGGGENLYFQGHHHHHHGGGGGIECGSTPKDLLEAIVRALSIFSKDGIEGPYTLVINTDRWINFLKEEAGHYPLEKRVEECLRGGKIITTPRIEDALVVSERGGDFKLILGQDLSIGYEDREKDAVRLFITETFTFQVVNPEALILLK
release of HB peptide by TEV protease (TEV protease): did not result in detectable release of HB peptide
